# Measurements reported in patent EP4335870A1 (NantCell, Inc., dated 2024).
# Where a chain is given by its changes, count along the chain named.
# B1: N-612-017 (antibody, V domains shown)
# VH: EVQLVESGGGLVQPGGSLRLSCAASGFTFSSYAMHWVRQAPGKGLEWVSAIWGSGSNTYYADSVKGRFTISRDNSKNTLYLQMNSLRAEDTAVYYCARGRDLAAFTKTAFDVWGQGTLVTVSS
# VL: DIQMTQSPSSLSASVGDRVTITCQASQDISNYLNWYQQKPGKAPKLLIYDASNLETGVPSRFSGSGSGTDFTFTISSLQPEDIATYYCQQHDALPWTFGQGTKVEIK
# B2: N-612-004 (antibody, V domains shown)
# VH: EVQLVESGGGLVQPGGSLRLSCAASGFTFSSYYMHWVRQAPGKGLEWVSAISGSGGYTYYADSVKGRFTISRDNSKNTLYLQMNSLRAEDTAVYYCARDRDHAYDWGFDVWGQGTLVTVSS
# VL: DIQMTQSPSSLSASVGDRVTITCQASQDISNYLNWYQQKPGKAPKLLIYDASNLETGVPSRFSGSGSGTDFTFTISSLQPEDIATYYCQQWADWPLTFGQGTKVEIK
# B3: N-612-056 (antibody, V domains shown)
# VH: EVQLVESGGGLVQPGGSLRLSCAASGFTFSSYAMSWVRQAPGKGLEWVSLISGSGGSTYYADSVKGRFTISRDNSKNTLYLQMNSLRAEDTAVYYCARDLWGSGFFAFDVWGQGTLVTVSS
# VL: B2 VL with W91D, D93G, W94T
# B4: N-612-014 (antibody, V domains shown)
# VH: EVQLVESGGGLVQPGGSLRLSCAASGFTFSSYAMTWVRQAPGKGLEWVSYISGSGGGTYYADSVKGRFTISRDNSKNTLYLQMNSLRAEDTAVYYCARDRWASGWLAFDVWGQGTLVTVSS
# VL: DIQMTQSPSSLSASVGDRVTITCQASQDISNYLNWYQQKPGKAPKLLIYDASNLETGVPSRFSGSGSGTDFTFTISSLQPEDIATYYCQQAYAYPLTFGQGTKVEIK
# Target: SARS-CoV-2 Spike S1, wildtype (Table 13) (SARS-CoV-2, UniProt P0DTC2 16-685)
row,Binder,Kd [nM]
1,B1,12
2,B2,0.62
3,B3,4.5
4,B4,11.4
